Laboratory results published in US20230257444A1, “FUSION PROTEIN AND COMBINATIONS THEREOF” (Agency for Science, Technology and Research, priority 2020, published 2023).
Like-named read-outs stand apart in the source and are kept apart here.

Key:
[1] = parameters: species or system Balb/c mice; conditions: mouse, in vivo, ip
Experimental: 9 week old female Balb/c mice (InVivos, Singapore) were injected intraperitoneally with 0.5, 1, 2 or 4 mg hDectin1-Fc in groups of 3. Blood was sampled from the tail at time 0, 5, 10, 15, 30 mins and 1, 2, 4, 8 hours thereafter followed by daily sampling with Microvette® ([…], Nümbrecht, Germany) for 20 days. The respective blood samples were allowed to clot and centrifuged at 2000 g and the blood serum collected. The blood serum was diluted accordingly and the concentration of hDectin1-Fc was tested with Human IgG ELISA Antibody Pair Kit and developed with pNPP ELISA Substrate ([…] Technologies, Vancouver, Canada). The plates were read on PLATE reader and the data analysed for hDectin1-Fc pharmacokinetic parameters with open source Microsoft Excel add-in PKSolver (China Pharmaceutical University, Nanjing, China).
The pharmacokinetic parameters of hDectin1-Fc at different doses (4 mg, 2 mg, 1 mg and 0.5 mg) were determined by administering a single bolus intraperitoneal injection and sampling blood serum daily (FIG. 14). The daily concentration over 20 days was measured by ELISA and the results analysed with PKSolver to determine the pharmacokinetic parameters (Table 2). […] The lowest dose of 0.5 mg has a half-life and MRT lower than the 2 mg and 1 mg dose and its peak concentration (Cmax) is at 10 hours instead of 2 hours like the other doses. This observed outcome for the 0.5 mg dose is likely to arise from the slow transfer of hDectin1-Fc from the intraperitoneal space of the mouse into its bloodstream due to the lower concentration gradient and stronger role of excretion over distribution. The duration of the MRT and the half-life is a reflection of the presence of the protective effects of hDectin1-Fc in the body of the mice. The optimal dose with the longest MRT and half-life is approximately 1 mg. The general take away from the pharmacokinetic study are: (i) high doses result in rapid excretion of the drug, (ii) peak concentration occurs at 2 hours (iii) lower doses have a longer half-life and mean residence time appropriate for passive immunization.

SC5314 Candida albicans [2] = experiment: In vitro combination therapy checkerboard dilution assay (Amphotericin B & hDectin1-Fc) with human primary macrophages; type: cell-based; conditions: between 0 μg/ml and 100 µg/ml hDectin1-Fc, 24 hours
Experimental: Human peripheral blood CD14+ monocytes were cultured at 1×10^6 cells/mL in 5 mL of ImmunoCult™-SF Macrophage Differentiation Medium with Human Recombinant M-CSF at 50 ng/ml in a T-25 flask at 37° C. in a 5% CO2 incubator. On Day 4, 2.5 mL of fresh ImmunoCult™-SF Macrophage Differentiation Medium was added to the flask. On Day 6, M1 activation was initiated with the addition of 50 ng/mL IFN-γ. On Day 8, the macrophages were treated with ACCUTASE and scrapped from the flask. The cells were centrifuged and resuspended in RPMI medium with 10% FBS and seeded into 96 well plates at 10^5 cells/well. The co-culture assay involves the addition of 10^5 cells/well of SC5314 Candida albicans cells to wells containing 10^5 cells/well of human primary macrophages cells with final concentration of hDectin1-Fc at 0, 1, 10 or 100 g/ml and varying concentration of Amphotericin B in a checkerboard dilution assay format in a 96 well plate. The assay was incubated for 24 hr at 37° C. in a 5% CO2 atmosphere incubator and the MIC and MFC determined visual using a Nikon Eclipse Ti-E inverted microscope.
10′ Candida albicans cells and 10′ human primary macropahges were seeded per well in a checkerboard dilution assay of Amphotericin B with the respective concentration of hDectin1-Fc (0, 10, 100 μg/ml) and incubated for 24 hours at 37° C.

SC5314 Candida albicans [3] = experiment: In vivo mouse monotherapy survival model (haematogenously disseminated candidiasis); parameters: species or system Balb/c mice
Experimental: 9 week old female Balb/c mice (InVivos, Singapore) were injected intraperitoneally with 1, 2 or 4 mg hDectin1-Fc in groups of 8 and the drug was allowed to distribute within the mice till its peak concentration at 2 hours based on the pharmacokinetic data. The mice were then injected intravenously with 0.5, 0.25 or 0.1 milion SC5314 Candida albicans cells to achieve a haematogenously disseminated candidiasis model. Another set of mice were injected with 0.5, 1, 2 mg hDectin1-Fc followed by intravenous injection with SC5314 Candida albicans 2 hours later. […] The mice were observed daily and moribund mice were euthanized and counted as dead the following day. Kaplan-Meier survival plots were made to track the survival overtime of the mice. Statistical analysis of the difference between mice treated with hDectin1-Fc or untreated was done with the Mantel-Cox log rank test.
To examine the effect of hDectin1-Fc passive immunization against reducing the fatality of haematogenously disseminated candidiasis, a Balb/c murine model of hDectin1-Fc at various doses in relation to Candida albicans inoculum was used. […] An untreated group without hDectin1-Fc but infected with the respective inoculum of Candida albicans was used as a control in each experimental set (FIG. 15). Survival in each group was monitored twice daily until all the mice had died or there was survival of 2 weeks from the last death. Moribund mice were euthanized and counted as part of the following day. […] The negative effect on survival of a high dose of hDectin1-Fc in relation to fungal inoculum is most apparent in the 4 mg hDectin1-Fc dose with 0.1 million Candida albicans (FIG. 15C) and 2 mg hDectin1-Fc with 0.05 million Candida albicans inoculum (FIG. 15D). […] The proximity between the 2 mg and 1 mg curves have a growing divergence as the fungal burden is reduced from 0.5 to 0.05 million (FIG. 15A-D).

With “hDectin1-Fc: soluble dimeric fusion protein: human Dectin-1 receptor polypeptide (aa 73-247) fused to human IgG1 Fc via hinge; SEQ ID NO: 5” the Cl/F ([1]; 0.5 mg) was 0.0066 (μg)/(μg/ml)/h, the Cmax ([1]; 0.5 mg) was 330 µg/mL and the Tmax ([1]; 0.5 mg) was 10 h. For the same substance, the Vz/F ([1]; 0.5 mg) was 0.9495 (μg)/(μg/ml), the t½ ([1]; 0.5 mg) was 100 h and the Cl/F ([1]; 1 mg) was 0.0163 (μg)/(μg/ml)/h. The Cmax ([1]; 1 mg) was 294 µg/mL, the Tmax ([1]; 1 mg) was 2 h and the Vz/F ([1]; 1 mg) was 3.4254 (μg)/(μg/ml). The t½ ([1]; 1 mg) was 146 h, the Cl/F ([1]; 2 mg) was 0.0095 (μg)/(μg/ml)/h and the Cmax ([1]; 2 mg) was 1039 µg/mL. The Tmax ([1]; 2 mg) was 2 h, the Vz/F ([1]; 2 mg) was 2.1489 (μg)/(μg/ml) and the t½ ([1]; 2 mg) was 156 h. The Cl/F ([1]; 4 mg) was 0.0314 (μg)/(μg/ml)/h, the Tmax ([1]; 4 mg) was 2 h and the Vz/F ([1]; 4 mg) was 3.5008 (μg)/(μg/ml). The t½ ([1]; 4 mg) was 77 h, the “reduction in MFC of Amphotericin B” value (SC5314 Candida albicans [2]) was ~45% and the survival curve (SC5314 Candida albicans [3]; 0.05 mg hDectin1-Fc, subacute inoculum of 0.05 million Candida albicans cells) was “prominent shift in the survival curve”. The “survival (rate of death vs untreated group)” value (SC5314 Candida albicans [3]; 2 mg hDectin1-Fc i.p., 0.05 million Candida albicans i.v. (FIG. 15D)) was “rate of death was greater than the corresponding untreated group”, the “survival (rate of death vs untreated group)” value (SC5314 Candida albicans [3]; 4 mg hDectin1-Fc i.p., 0.1 million Candida albicans i.v. (FIG. 15C)) was “rate of death was greater than the corresponding untreated group” and the survivability (SC5314 Candida albicans [3]; hDectin1-Fc at the appropriate dose, passive immunization 2 hours before challenge) was “able to improve survivability”. The “survival, 1 mg dose versus 2 mg dose” value (SC5314 Candida albicans [3]; lethal infection model, 0.5 million Candida albicans cells (FIG. 15A)) was “marginal optimal therapeutic effect of the 1 mg dose over the 2 mg dose”.
